Data: patent publication US20250304640A1 (ORIKINE BIO SL, published 2025)
Read-outs that look alike come from different tables or passages of the source.

T1: IL-10 receptor (IL-10R: IL10RA and IL10RB) on HEK-Blue IL-10 reporter cells (UniProt Q13651 22-578; Q08334 20-325, limits assumed)
T1 sequence (looked up) 1: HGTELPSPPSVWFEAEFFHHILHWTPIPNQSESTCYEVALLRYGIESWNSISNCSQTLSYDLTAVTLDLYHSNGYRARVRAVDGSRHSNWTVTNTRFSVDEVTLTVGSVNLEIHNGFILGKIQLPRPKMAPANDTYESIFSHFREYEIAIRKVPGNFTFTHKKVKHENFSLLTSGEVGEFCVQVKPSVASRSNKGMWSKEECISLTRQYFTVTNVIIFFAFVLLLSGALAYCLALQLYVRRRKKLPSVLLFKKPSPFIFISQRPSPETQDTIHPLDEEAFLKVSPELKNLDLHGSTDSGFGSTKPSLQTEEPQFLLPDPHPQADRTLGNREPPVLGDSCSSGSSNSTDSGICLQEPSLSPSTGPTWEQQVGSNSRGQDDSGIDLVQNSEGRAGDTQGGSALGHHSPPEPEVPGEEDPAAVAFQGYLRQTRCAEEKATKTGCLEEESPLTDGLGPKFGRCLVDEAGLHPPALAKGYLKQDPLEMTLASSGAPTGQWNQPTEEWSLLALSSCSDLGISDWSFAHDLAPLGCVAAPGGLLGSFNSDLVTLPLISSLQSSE
T1 sequence (looked up) 2: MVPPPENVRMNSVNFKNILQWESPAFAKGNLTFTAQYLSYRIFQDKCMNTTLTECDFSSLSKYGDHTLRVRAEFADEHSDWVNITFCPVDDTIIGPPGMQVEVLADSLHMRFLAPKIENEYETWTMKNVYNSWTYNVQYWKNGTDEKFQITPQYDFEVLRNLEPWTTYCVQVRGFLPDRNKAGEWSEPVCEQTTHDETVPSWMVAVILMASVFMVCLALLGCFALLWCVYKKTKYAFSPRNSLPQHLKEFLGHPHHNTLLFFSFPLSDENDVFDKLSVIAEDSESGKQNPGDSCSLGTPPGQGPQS


Key:
Assay in all cases: cell-based or functional assay
[1] = biological target: T1, IL-10 receptor (IL-10R: IL10RA and …)
[2] = biological target: T1, IL-10 receptor (IL-10R: IL10RA and …); remark: listed apart in the source
[3] = biological target: T1, IL-10 receptor (IL-10R: IL10RA and …); remark: listed apart in the source
[4] = biological target: T2, CSF1 receptor (CSF1R) (UniProt P07333 20-972, limits assumed)
[5] = biological target: T2, CSF1 receptor (CSF1R); remark: listed apart in the source

T2 sequence (P07333 20-972 limits assumed): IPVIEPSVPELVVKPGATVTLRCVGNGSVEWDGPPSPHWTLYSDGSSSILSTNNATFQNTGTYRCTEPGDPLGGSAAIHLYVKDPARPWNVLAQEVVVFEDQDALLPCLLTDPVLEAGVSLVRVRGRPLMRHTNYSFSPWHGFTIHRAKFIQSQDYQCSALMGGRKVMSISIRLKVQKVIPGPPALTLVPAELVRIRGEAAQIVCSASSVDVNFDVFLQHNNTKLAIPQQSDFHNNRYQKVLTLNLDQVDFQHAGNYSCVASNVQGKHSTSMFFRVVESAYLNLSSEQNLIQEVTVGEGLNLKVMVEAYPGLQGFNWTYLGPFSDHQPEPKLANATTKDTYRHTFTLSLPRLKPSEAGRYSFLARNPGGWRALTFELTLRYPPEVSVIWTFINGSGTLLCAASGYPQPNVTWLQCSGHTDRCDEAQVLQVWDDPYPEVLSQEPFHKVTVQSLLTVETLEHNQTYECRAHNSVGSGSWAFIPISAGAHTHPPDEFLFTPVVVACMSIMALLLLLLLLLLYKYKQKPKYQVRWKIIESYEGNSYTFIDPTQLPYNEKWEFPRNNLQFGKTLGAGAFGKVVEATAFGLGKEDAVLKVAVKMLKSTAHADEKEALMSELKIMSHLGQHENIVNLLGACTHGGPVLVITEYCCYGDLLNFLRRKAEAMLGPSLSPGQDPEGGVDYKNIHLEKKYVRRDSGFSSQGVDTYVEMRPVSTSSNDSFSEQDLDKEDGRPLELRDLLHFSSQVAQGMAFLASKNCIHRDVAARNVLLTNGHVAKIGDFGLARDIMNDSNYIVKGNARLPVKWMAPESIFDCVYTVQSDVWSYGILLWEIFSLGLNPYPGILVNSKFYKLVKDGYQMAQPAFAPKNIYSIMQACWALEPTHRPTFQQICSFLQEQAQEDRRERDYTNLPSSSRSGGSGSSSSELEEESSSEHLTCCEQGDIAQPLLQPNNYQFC

| Binder | IL-10 EC-50, HEK-Blue IL-10 reporter cells [1] | EC-50 for IL10 activity, HEK-Blue IL-10 reporter cells [3] | EC-50 for CSF1 activity, HEK293 CSF1R/SRE reporter [4] | further results |
| --- | --- | --- | --- | --- |
| CSF1-Foldikine10_cut116-HiBit (ligand) EEVSEYCSHMIGSGHLQSLQRLIDSQMETSCQITFEFVDQEQLKDPVCYLKKAFLLVQDIMEDTMRFRDNTPNAIAIVQLQELSLRLKSCFTKDYEEHDKACVRTFYETPLQLLEKVKNVFNETKNLLDKDWNIFSKNCNNSFAECSSQDGGGGGSGGSGGSGGSGGSGGSGGSGGSGGGMTQSENSCTHFPGNLPNMLRDLRDAFSRVKTFFQMKDQLDNLLLKESLLEDFKGYLGCQALSEMIQFYLEEVMPQAENQEPDIKAHVNSLGENLKTLRLRLRRCHRFLPCENKSKAVEQVKNAFNKLQEKGIYKAMSEFDIFINYIEAYMTMNNGGLDYLPNMLRDLRDAFSRVKTFFQMKDQLDNLLLKESLLEDFKGYLGCQALSEMIQFYLEEVMPQAENQDPDIKAHVNSLGENLKTLRLRLRRNHRFLPCENKSKAVEQVKNAFNKLQEKGIYKAMSEFDIFINYIEAYMTMKIRNGGVSGWRLFKKIS | – | – | – | IL-10 EC-50, HEK-Blue IL-10 reporter cells [2]: 3.06e-10 |
| CSF1-25AA-Foldikine10-HiBit (ligand) EEVSEYCSHMIGSGHLQSLQRLIDSQMETSCQITFEFVDQEQLKDPVCYLKKAFLLVQDIMEDTMRFRDNTPNAIAIVQLQELSLRLKSCFTKDYEEHDKACVRTFYETPLQLLEKVKNVFNETKNLLDKDWNIFSKNCNNSFAECSSQDGGGGGSGGSGGSGGSGGSGGSGGSGGSGGGMTQSENSCTHFPGNLPNMLRDLRDAFSRVKTFFQMKDQLDNLLLKESLLEDFKGYLGCQALSEMIQFYLEEVMPQAENQEPDIKAHVNSLGENLKTLRLRLRRCHRFLPCENKSKAVEQVKNAFNKLQEKGIYKAMSEFDIFINYIEAYMTMNNGGLDYLPNMLRDLRDAFSRVKTFFQMKDQLDNLLLKESLLEDFKGYLGCQALSEMIQFYLEEVMPQAENQDPDIKAHVNSLGENLKTLRLRLRRNHRFLPCENKSKAVEQVKNAFNKLQEKGIYKAMSEFDIFINYIEAYMTMKIRNGGVSGWRLFKKIS | – | 3.61e-10 | 1.64e-09 | – |
| CSF1-IL10-HiBit (ligand) EEVSEYCSHMIGSGHLQSLQRLIDSQMETSCQITFEFVDQEQLKDPVCYLKKAFLLVQDIMEDTMRFRDNTPNAIAIVQLQELSLRLKSCFTKDYEEHDKACVRTFYETPLQLLEKVKNVFNETKNLLDKDWNIFSKNCNNSFAECSSQDGGGGGSGGSGGSGGSGGSGGSGGSGGSGGGSPGQGTQSENSCTHFPGNLPNMLRDLRDAFSRVKTFFQMKDQLDNLLLKESLLEDFKGYLGCQALSEMIQFYLEEVMPQAENQDPDIKAHVNSLGENLKTLRLRLRRCHRFLPCENKSKAVEQVKNAFNKLQEKGIYKAMSEFDIFINYIEAYMTMKIRNGGVSGWRLFKKIS | 1.16e-09 | – | – | CSF1 EC-50, HEK293 CSF1R/SRE reporter [5]: 7.81e-10 |
| CSF1-30AA-IL10-HiBit (ligand) EEVSEYCSHMIGSGHLQSLQRLIDSQMETSCQITFEFVDQEQLKDPVCYLKKAFLLVQDIMEDTMRFRDNTPNAIAIVQLQELSLRLKSCFTKDYEEHDKACVRTFYETPLQLLEKVKNVFNETKNLLDKDWNIFSKNCNNSFAECSSQDGGGGGSGGSGGSGGSGGSGGSGGSGGSGGGRASPGQGTQSENSCTHFPGNLPNMLRDLRDAFSRVKTFFQMKDQLDNLLLKESLLEDFKGYLGCQALSEMIQFYLEEVMPQAENQDPDIKAHVNSLGENLKTLRLRLRRCHRFLPCENKSKAVEQVKNAFNKLQEKGIYKAMSEFDIFINYIEAYMTMKIRNGGVSGWRLFKKIS | – | 2.35e-10 | 5.5e-10 | – |
| CSF1-35AA-Foldikine10-HiBit (ligand) EEVSEYCSHMIGSGHLQSLQRLIDSQMETSCQITFEFVDQEQLKDPVCYLKKAFLLVQDIMEDTMRFRDNTPNAIAIVQLQELSLRLKSCFTKDYEEHDKACVRTFYETPLQLLEKVKNVFNETKNLLDKDWNIFSKNCNNSFAECSSQDGGGGGSGGGGSGGSGGSGGSGGSGGSGGSGGSGGGMTQSENSCTHFPGNLPNMLRDLRDAFSRVKTFFQMKDQLDNLLLKESLLEDFKGYLGCQALSEMIQFYLEEVMPQAENQEPDIKAHVNSLGENLKTLRLRLRRCHRFLPCENKSKAVEQVKNAFNKLQEKGIYKAMSEFDIFINYIEAYMTMNNGGLDYLPNMLRDLRDAFSRVKTFFQMKDQLDNLLLKESLLEDFKGYLGCQALSEMIQFYLEEVMPQAENQDPDIKAHVNSLGENLKTLRLRLRRNHRFLPCENKSKAVEQVKNAFNKLQEKGIYKAMSEFDIFINYIEAYMTMKIRNGGVSGWRLFKKIS | – | 3.18e-10 | 1.83e-09 | – |
| CSF1-35AA-IL10-HiBit (ligand) EEVSEYCSHMIGSGHLQSLQRLIDSQMETSCQITFEFVDQEQLKDPVCYLKKAFLLVQDIMEDTMRFRDNTPNAIAIVQLQELSLRLKSCFTKDYEEHDKACVRTFYETPLQLLEKVKNVFNETKNLLDKDWNIFSKNCNNSFAECSSQDGGGGGSGGGGSGGSGGSGGSGGSGGSGGSGGSGGGRASPGQGTQSENSCTHFPGNLPNMLRDLRDAFSRVKTFFQMKDQLDNLLLKESLLEDFKGYLGCQALSEMIQFYLEEVMPQAENQDPDIKAHVNSLGENLKTLRLRLRRCHRFLPCENKSKAVEQVKNAFNKLQEKGIYKAMSEFDIFINYIEAYMTMKIRNGGVSGWRLFKKIS | – | 1.9e-10 | 6.5e-10 | – |
| CSF1-15AA-Foldikine10-HiBit (ligand) EEVSEYCSHMIGSGHLQSLQRLIDSQMETSCQITFEFVDQEQLKDPVCYLKKAFLLVQDIMEDTMRFRDNTPNAIAIVQLQELSLRLKSCFTKDYEEHDKACVRTFYETPLQLLEKVKNVFNETKNLLDKDWNIFSKNCNNSFAECSSQDGGSGGSGGSGGSGGGMTQSENSCTHFPGNLPNMLRDLRDAFSRVKTFFQMKDQLDNLLLKESLLEDFKGYLGCQALSEMIQFYLEEVMPQAENQEPDIKAHVNSLGENLKTLRLRLRRCHRFLPCENKSKAVEQVKNAFNKLQEKGIYKAMSEFDIFINYIEAYMTMNNGGLDYLPNMLRDLRDAFSRVKTFFQMKDQLDNLLLKESLLEDFKGYLGCQALSEMIQFYLEEVMPQAENQDPDIKAHVNSLGENLKTLRLRLRRNHRFLPCENKSKAVEQVKNAFNKLQEKGIYKAMSEFDIFINYIEAYMTMKIRNGGVSGWRLFKKIS | – | 2.6e-10 | 1.19e-09 | – |

Continued, in another order:

| IL-10 EC-50, HEK-Blue IL-10 reporter cells [1] | EC-50 for IL10 activity, HEK-Blue IL-10 reporter cells [3] | EC-50 for CSF1 activity, HEK293 CSF1R/SRE reporter [4] | Binder | further results |
| --- | --- | --- | --- | --- |
| 8e-10 | – | – | IL10-HiBit (ligand) SPGQGTQSENSCTHFPGNLPNMLRDLRDAFSRVKTFFQMKDQLDNLLLKESLLEDFKGYLGCQALSEMIQFYLEEVMPQAENQDPDIKAHVNSLGENLKTLRLRLRRCHRFLPCENKSKAVEQVKNAFNKLQEKGIYKAMSEFDIFINYIEAYMTMKIRNGGVSGWRLFKKIS | – |
| 2.14e-10 | – | – | foldikine10-HiBit (ligand) MTQSENSCTHFPGNLPNMLRDLRDAFSRVKTFFQMKDQLDNLLLKESLLEDFKGYLGCQALSEMIQFYLEEVMPQAENQEPDIKAHVNSLGENLKTLRLRLRRCHRFLPCENKSKAVEQVKNAFNKLQEKGIYKAMSEFDIFINYIEAYMTMNNGGLDYLPNMLRDLRDAFSRVKTFFQMKDQLDNLLLKESLLEDFKGYLGCQALSEMIQFYLEEVMPQAENQDPDIKAHVNSLGENLKTLRLRLRRNHRFLPCENKSKAVEQVKNAFNKLQEKGIYKAMSEFDIFINYIEAYMTMKIRNGGVSGWRLFKKIS | – |
| 5.9e-09 | – | – | IL-10-CSF1-HiBit (ligand) SPGQGTQSENSCTHFPGNLPNMLRDLRDAFSRVKTFFQMKDQLDNLLLKESLLEDFKGYLGCQALSEMIQFYLEEVMPQAENQDPDIKAHVNSLGENLKTLRLRLRRCHRFLPCENKSKAVEQVKNAFNKLQEKGIYKAMSEFDIFINYIEAYMTMKIRNGGGGGSGGSGGSGGSGGSGGSGGSGGSGGGEEVSEYCSHMIGSGHLQSLQRLIDSQMETSCQITFEFVDQEQLKDPVCYLKKAFLLVQDIMEDTMRFRDNTPNAIAIVQLQELSLRLKSCFTKDYEEHDKACVRTFYETPLQLLEKVKNVFNETKNLLDKDWNIFSKNCNNSFAECSSQDGGVSGWRLFKKIS | CSF1 EC-50, HEK293 CSF1R/SRE reporter [5]: 4.64e-09 |
| 1.36e-09 | – | – | Foldikine10-CSF1-HiBit (ligand) MTQSENSCTHFPGNLPNMLRDLRDAFSRVKTFFQMKDQLDNLLLKESLLEDFKGYLGCQALSEMIQFYLEEVMPQAENQEPDIKAHVNSLGENLKTLRLRLRRCHRFLPCENKSKAVEQVKNAFNKLQEKGIYKAMSEFDIFINYIEAYMTMNNGGLDYLPNMLRDLRDAFSRVKTFFQMKDQLDNLLLKESLLEDFKGYLGCQALSEMIQFYLEEVMPQAENQDPDIKAHVNSLGENLKTLRLRLRRNHRFLPCENKSKAVEQVKNAFNKLQEKGIYKAMSEFDIFINYIEAYMTMKIRNGGGGGSGGSGGSGGSGGSGGSGGSGGSGGGEEVSEYCSHMIGSGHLQSLQRLIDSQMETSCQITFEFVDQEQLKDPVCYLKKAFLLVQDIMEDTMRFRDNTPNAIAIVQLQELSLRLKSCFTKDYEEHDKACVRTFYETPLQLLEKVKNVFNETKNLLDKDWNIFSKNCNNSFAECSSQDGGVSGWRLFKKIS | CSF1 EC-50, HEK293 CSF1R/SRE reporter [5]: 3.18e-09 |
